This data set can be described thus: soluble on expression in E. coli; label from the status in PepcDB or PDB records.
Consider “MSAPPTAPADPSTGSDRPKRSVPPPRHPTHAVDRAFLDLERRRPEVRWDAGGVAYLSGPPPSLADLRAYVAFRLGELPLLTSRVTGGRRPGWQPSEDFPVDRHVYEVVADGPADWDTALHSALNAPFAPGAYWGVWLIHGHEPDAYALCYRFLHACQDGSAAAMTFRAMLGDGEPSARPLPGGSGVFGVPRRFGAAVALATRFLARTFTVRRHRPDPAFAPAGERRLWRGRVPVDTLRLIGAGRGGSAHDAHLAALAGALSVWAARSGVPLPRVTAVLPVDARRADEEQTWGNRCFALPVDLPVGPAPGRPDGSPDEEAPLRRLDQIMAVTRKLRGDTWRQAVQDLVRYMPDRPTAWYLRRMLSPRVTNVMATSMPLAEKGSLGETRVTGTALLPLLVPGHLCGVGLSFFGDWAEVSFVADRALPLGELLPELWEQAVRELAESVQRGLEHHHHHH”, for which the “soluble on expression in E. coli” value is “not soluble”.
Turning to “MGSDKIHHHHHHMKLVSLRLEEGLIEKIDEVARKTLQSRSEIIRSSIALYLSLLENIGFYFKPSLPMKNVDVYEERNAVNVDLGNLTSVSVLSVSYGGVGELELDFRKDLGFVAEVMANQVAVETCCRFITPLLVMLTSTCEFLYTHTFFRMFSEAIRERMKVRTMLAGYEEFFETKQSGFVATVVGLRDMSTRNSPRRGDRIYFFGNAVSGAELSEEELLDMADVERLVGLVKEGKASAIFPVKSGGLKEVADYAAALAGGKAMLFEKRGGCPATAIVLTSAEDLSGYGCELVGEIL”, the “soluble on expression in E. coli” value is on record as “not soluble”.
Then “MSLDTFKNKPLGDNFTLTDSNGNTITEADIRSKPSIIFFGFTMCPESCPTTLTNLDRWLTSLGADADKLGVWFVTVDPERDTPEVLHDYLSNFNHKIVGISGEPEKVHKMVDSFNIVAEKVPGTDGNYTYNHTAAIFLLKKGGKLAGVIPYKIEKNNEELRDNIAIEKLKQLVLNEGHHHHHH”, with “soluble”; and “MTAFFCTLQDDRIISLDWQEGADIDLIYLAPGRTLPSQKGAVSHVLQGKDLRKGWSIDHGELTVGVSSLAVAVKNANGDVLGAVAVAGLSASVESKIDTIRDTLKETACAIA”, with “not soluble”; and “MSLQIKDEILSLLKRGKNLLAFSYGSDSSVLFYLLMQEKIDFDLVMINYKTRKNSDLEELKAKELALKFHKKIFIKHAPKFQSNFEKKARDFRYDFFEKICLEQGYDHLILAHHLNDQFEWFLMQLSRGAGLAEILGMQECEKRSNYTLLRPLLFISKDEISSFLKEKDIFYFHDESNENEKYFRNYIRKNFSNAFVSEFHQGLKRSFSYLDEDRKKLYDFENIKEIQGLLICPKNESLIARAVKMKGLLLSTAQRKELLKGDCVLGGKIALAYKNEQAIVFEYETCQKLPKNFKEECRIAKIPRLLRAYLYNHKIDISSLSEGHHHHHH”, with “soluble”.
Then “MDPFKKPVRMLPIKGAPISRPISVFTFDVFNPPDDSDGSSTPDSVFEAETSPARTPPTPALILPYDYVSSEDSDDEAQEHADNRDTNDQVSESSTSEDSDSESESSCDDTQQTFVDDESTSSSGEEDRDDPFESNDQGAQGGSTSESEDDLPAILRAARETQSDSSSDSSGNSHKKRRVQEEESSRILKTPAPISGNGKYNWPWLD”, with “soluble”; and “SNAMKELIKEHQKDINPALQLHDWVEYYRPFAANGQSANYIPALGKVNDSQLGICVLEPDGTMIHAGDWNVSFTMQSISKVISFIAACMSRGIPYVLDRVDVEPTGDAFNSIIRLEINKPGKPFNPMINAGALTIASILPGESAYEKLEFLYSVMETLIGKRPRIHEEVFRSEWETAHRNRALAYYLKETNFLEAEVEETLEVYLKQCAMESTTEDIALIGLILAHDGYHPIRHEQVIPKDVAKLAKALMLTCGMYNASGKYAAFVGVPAKSGVSGGIMALVPPSARREQPFQSGCGIGIYGPAIDEYGNSLTGGMLLKHMAQEWELSIF”, with “soluble”; and “MNTHHHIVISIGSNYAAETNIPAAMRLLRDSYPTIRFSKPIENAPIDFPYPSGLFTNLTAHFYSSENREEVGRKLKGIELQLGRTYTKPFDGRVAIDLDLIVWNNTILKNVDYSRPYIQSGLQELRINIQTQLNMTKESRSETFFHNKPNNWNCAQAVQKGFQDLTGMTDEAIEEEYRSKGGGRAEGGLCGALYSANRILESKGLQPVSQEFQAHAGGITCRELKGELKFPCNNCVRLAEELVEQRLSESQTID”, with “not soluble”.
Regarding “MNQIDLNVTCRYAGVFHVEKNGRYSISRTEAADLCQAFNSTLPTMDQMKLALSKGFETCRYGFIEGNVVIPRIHPNAICAANHTGVYILVTSNTSHYDTYCFNASAPPEEDCTSVTDLPNSFDGPVTITIVNRDGTRYSKKGEYRTHQEDIDAS”, the “soluble on expression in E. coli” value was “soluble”.
Regarding “MGSDKIHHHHHHMKSYLTPLALLVSSVFSTVAYAETQLFVTTSSTQDAPLHIVYPTGIRIGQAVQDGLQQLPLYNKTNNKEVMPIYWLGAALVDLENTAVLETKRQQVLSQLAQMGEATNDSRYITKLAQLAQFLRGIKLGQRVMQPLDIDAIRITESYNAIIEGKYQLVLPPRPSTITLVGAVTQTGNMPWQSQTSSKDYLKQAGLLENAETSFVWIIQPDGNAIRQPIAYWNYQAQDIAPGATLFVEFSSLFDGYANLNENIIELLKNRTL”, the “soluble on expression in E. coli” value is reported as “not soluble”.
The value for “MIETITQSQETAILESFLELVKSPYGNFASIGKLSHVLNDPDTLQKVVAVLSLTPQGKQAFEDRPMLGKIDLEQLHQLPNYTLGYMYADHMIRNQLTPPPVNENVNHPFMFLAAHLGETHDIWHVVTGCDTDKPGEVKLEAFYTAQLIPDRLFLALLAKNLLKTAMYEVELCEQILDGLTQGWMMGKRAKPLFGIEWNKLWETPLEELQTSLNIVPILEHHHHHH” was “soluble”; that for “GPGSMFTPSTRFLCSARPLLWFGRRGVFAAPHPEKAKTGGEDAFVVHTSGIGVADGVGGYASYGVDPGVYTRNVMKHTLRALQEDDNRGTIGALQALTYGYTEAQKLKQPGGCPVTLVTLLDGRFASVLNLGDCGTICLRSSKLFFATEPQQHSFNCPYQLPEDPPSVGDRTTLEVSEGDVFLCASDGLLDNVDMSDILRHLDAVNRDGCQRVAENLVACACRNGANKGFDSPFAKQARAVGYHYMGGKQDDVTVVVAQLTRGTVAPDDCPSLITELLDVHKT” was “not soluble”.
On to “MAHHHHHHLRCAPSKLFRATPLLRVWAAEEDDASAPRTTFRNVRPGRLLRLWRQMRHRAWMLYAWDEEWVSPMQEGYLHQQRLEQVCFAPLSAYGVVPGSYCDPLLYNTKRTSPFRWHVANVQGDVVGHWYMDADELFRIEDWQPREPDDPLEMFPRPPPMLLRWDESVDEHGNRAFRYRYHYDMMGPTGKWEAYPRCPFSHLYHGGPDQHGRAEGYGFQQGHLLRCDEAEEEVLRRIMEGEDREWEMVKRTEAVQEPWSYPGKIRPRDFEGAVEHAKARYRERVRHGKETDPSEDPEYDLVQASEYVEPRDGRRAEWRHLWASGRKPGESLPFHVAFNDGLCFEGNEGGPPAHPAAHYEATPKGAPYGRYEDADAAAARAAEAAHNAACEQSLSEAMARHRRLFGDTSGAPSGPKAPLPTGCRPMRCAPGPPLPSGRSRSSGARAVGSGPVCGAGARDGESEGEGRGGEAPLGYGARACSWRRREGWV”, for which the “soluble on expression in E. coli” value was “soluble”.
The value for “MMVRVMRYKKVPVKKIVNKIIDECDVILLVLDARDPEMTRNRELEKKIKAKGKKLIYVLNKADLVPKDILEKWKEVFGENTVFVSAKRRLGTKILREMIKQSLKEMGKKEGKVGIVGYPNVGKSSIINALTGKRKALTGSVAGLTKGEQWVRLTKNIKLMDTPGVLEMRDEDDLVISGALRLEKVENPIPPALKILSRINNFDNSIIKEYFGVDYEEVDEELLKKIGNKRSYLTKGGEVDLVRTAKTIIKEYQDGKLNYYKVDLKKYGQDRERDISFITKYLKDFPFIEDAKMIVTHLKDFDGLYKKIKKPVLGSEEIDGNIVVVSFGEKTKDACRKKVENLCRERNIEVLSKFGDKIGANNIYVAVGKRVKE” was “soluble”.
The value for “GMRGLIVDYAGVLDGTDEDQRRWRNLLAAAKKNGVGTVILSNDPGGLGAAPIRELETNGVVDKVLLSGELGVEKPEEAAFQAAADAIDLPMRDCVLVDDSILNVRGAVEAGLVGVYYQQFDRAVVEIVGLFGLEGEF” was “soluble”; that for “MQKWIGIMGIIFILTGCKMSEAPTNLMEAPANEKWINELKEQIDKDLPVNYRLLTPMSNKDKQMIWSMDFKQDNKKEAVIFYKLPNADHSVYLAVYEKNGNGWKTKSTHKFNGGDVDIVEVGDFTGNGKRELLIGISVDRESLKHVMYVFSEENEDMREIYNRNYTKLFIDDLNKNGLKDLSLVTYEKDEKLIVEFIEQFKTLSEASFDPFINSIQRIQMGRISKSLKAIVIDAGVGAHSGITYVAKFDENHYEVLPIDGKEDLFNEYVVESKDVNEDGIIEFVRTVRPKGWEDKPHGDSPLFERYIQWSESGIKPIEERYIDIEKGYYVKIPKELIGKITISDEQKESNSQKFLETSTNETWLEVHIFKRKEWFGIKGYSAAVKTASHVYAVPKQPHFEKVKAYVKPLADYQQE” was “not soluble”.
On to “MSSQKSSHHKADSKMEQDNNRKAWISQPSGLNFVWGGDSRYWVIPKEPRMPAELKMVSWLEVTGSFDKIEPGKTYRIGFKISFKPDATGWDKAPVFMSAKIGKKGKTVWKRIKSVSQNFGILKGGSEPVNIPDESDGLFEILVSPTALNQDTKLQFGLYEVWTGRWKTGLLIHEAFVQEV”, for which the “soluble on expression in E. coli” value is listed as “soluble”.
Consider “GAMSSPAGSPTEQAPPAKGSVKVLRTVATGLNSPWGLAPLPGGDLLVSSRDEATITRVDAKTGRKTELGEVPGVSPSGEGGLLGIALSPDYASDHMVYAYFTSASDNRIVRMLYDEKKPSGEQLGAPDTVFRGIPKGVIHNGGRIAFGPDKMLYAGTGESGDTGLSQDRKSLGGKILRMTPDGEPAPGNPFPGSPVYSYGHRNVQGLAWDDKQRLFASEFGQDTWDELNAIKPGDNYGWPEAEGKGGGSGFHDPVAQWSTDEASPSGIAYAEGSVWMAGLRGERLWRIPLKGTAAAADPQAFLEGEYGRLRTVAPAGGDKLWLVTSNTDGRGDAKGGDDRILELEVE”, for which the “soluble on expression in E. coli” value is “soluble”.
Regarding “MGSDKIHHHHHHMSFPDVTNYYLFAQVMACGSISAASRELGLPKSTISRKMALLEQEQGTRLFHRSRSGLKLTDVGREFLVHCERLVSAAESAQQVTQRLLDKPRGKVEISAPYALSQSLLVQVLPEFMSLYPEVEIQLVVTNRPVNLIEEGIDIALRVRKNIEDSSLIARPISQAPQTLYIAPDLINQNSITEPEDLLTFEHLSMHYTNGRYGYELIHSSGLQKNIRIKPRLITDDMIVLREAAIKKLGIVALPNYLCNDAVNSGELVPVLTDWHLPIGIMHITYSHRRGILPAVRVLIDFLAEKLPHLAQQQF”, the “soluble on expression in E. coli” value was “not soluble”.
The value for “MGSDKIHHHHHHMAIAPTLNIPQAKFLAMQYKFKAYVAGFGSGKTWVGCGGICKGMWEHPKINQGYFAPTYPQIRDIFYPTVEEVAHDWGLNVKINEGNKEVHFYAGRQYRGTTICRSMEKPQTIVGFKIGNALIDELDVMPAKKAQLAWRKIIARMRYNVAGLRNGIDVTTTPEGFKFVYQQFAKAVRDKPSLSTLYGLVQASTFDNEKNLPPDYIPSLMESYPPELIKAYLRGQFTNLTSGTIYHQFDRKLNNCREEEQPGEPLYIGMDFNVGKMAGVVHVLRLGLPFAVTEIIKAYDTPDMIRIIKERFWLCDGHDYRKVREIYIYPDASGDSRKSSNASATDIAQLKQAGFNVVVNASNPPVKDRINAMNAMFCNGNGERRYKVNVKRCPVYTESLEQQVWGENGEPDKTADNDHPNDAGGYFIVKQFPIIKPTGKVTQLRM” was “not soluble”.

The values are drawn from the DeepSol protein solubility set.
